According to US20230331848A1 (BIOSION, published 2023):
Substitutions are numbered along the chain they refer to. Values belong to the binder of their own block, whether it stands above or below them.

Tests used:
[1] = biological target: T1, in house made human PD-1-Fc protein (human, biotin-labeled (sites not given)); assay: competitive ELISA: antibody pre-mixed with biotin-labeled human PD-1-Fc, added to coated Pembrolizumab (competitor); unit from the axis 'Con of mAb, nM.'
T1 construct: also called biotin-labeled human PD-1-Fc
Description: ELISA plates were washed once with wash buffer (PBST, PBS+0.05% Tween-20) and then blocked with 200 μl/well blocking buffer (5% w/v non-fatty milk in PBST) for 2 hours at 37° C. […] After incubation at 37° C. for 40 minutes, plates were washed using wash buffer, added and incubated with 100 μl/well Peroxidase Streptavidin for 40 minutes at 37° C. Plates were washed again using wash buffer. Finally, TMB was added and the reaction was stopped using 1M H₂SO₄. The absorbance was read on a microplate reader using dual wavelength mode with 450 nm for TMB and 630 nm as the reference wavelength, and the OD (450-630) values were plotted against antibody concentrations. Data was analyzed using Graphpad Prism software and IC₅₀ values were reported.

[2] = biological target: T1, in house made human PD-1-Fc protein; assay: capture ELISA: antibody captured on anti-mouse IgG F(ab')2 coated plate, biotin-labeled human PD-1-Fc detected with streptavidin-HRP; unit from the axis 'Con of mAb, nM.'
Description: Briefly, 96-well micro plates were coated with 100 μl 2 μg/ml AffiniPure Goat Anti-Mouse IgG F(ab′)₂ fragment specific (Cat#:115-005-072, Jackson lmmunoResearch) or Goat-anti-human IgG (Cat#:109-005-097, Jackson ImmunoResearch, for the positive control and negative control) in PBS overnight at 4° C. Plates were washed once with wash buffer (PBST, PBS+0.05% Tween-20) and then blocked with 200 μl/well blocking buffer (5% w/v non-fatty milk in PBST) for 2 hours at 37° C. […] After a final wash, plates were incubated with 100 μl/well TMB (Cat#:TMB-S-002, Innoreagents) at room temperature.
The reaction was stopped 3-10 minutes later with 50 μl/well 1M H₂SO₄, and the absorbance was read on a microplate reader using dual wavelength mode with 450 nm for TMB and 630 nm as the reference wavelength. The OD (450-630) values were plotted against antibody concentrations. Data was analyzed using GraphPad Prism software and EC₅₀ values were reported.

[3] = biological target: T2, recombinant human PD-1-his protein (Cat#:10377-H08H, Sino biological Inc.) (human, UniProt Q15116 25-167); assay: SPR (Biacore T200), antibody captured, PD-1-his in flow, 1:1 fit
T2 construct: Bought protein used as analyte in the Biacore tests; not shown: his tag
Text: (§1) The purified anti-PD-1 mouse monoclonal antibodies (mAbs) generated in Example 1 were characterized for binding affinities and binding kinetics by Biacore T200 system (GE healthcare, Pittsburgh, Pa., USA).
(§2) Briefly, Goat-Anti-Mouse IgG (Cat#: BR100838, GE healthcare, Mouse Antibody Capture Kit) was covalently linked to a CMS chip (carboxy methyl dextran coated chip, Cat#: BR100530, GE healthcare) via primary amines using a standard amine coupling kit (GE healthcare, Pittsburgh, Pa., USA) provided by Biacore. Un-reacted moieties on the biosensor surface were blocked with ethanolamine. A Protein G chip (Cat#:29-1793-15, GE healthcare) was used for the positive controls affinity determination. The anti-PD-1 antibodies of the disclosure and the two positive controls at the concentration of 2 μg/ml were respectively flowed onto the chip at a flow rate of 10 μl/min. Then, serially diluted recombinant human PD-1-his protein (Cat#:10377-H08H, Sino biological Inc.), cynomolgus PD-1-his protein (Cat#:PD1-05223, Acro biosystems Inc.) and recombinant mouse PD-1-his protein (Cat#:50124-M08H, Sino Biological Inc), 2-fold dilution in HBS-EP⁺ buffer (provided by Biacore) starting at 200 nM, were respecitvely flowed onto the chip at a flow rate of 30 μl/min. The antigen-antibody association kinetics was followed for 2 minutes and the dissociation kinetics was followed for 10 minutes. The association and dissociation curves were fit to a 1:1 Langmuir binding model using Biacore evaluation software.

[4] = biological target: T3, cynomolgus PD-1-his protein (Cat#:PD1-05223, Acro biosystems Inc.) (cynomolgus, UniProt B0LAJ3 25-170); assay: as above
T3 construct: Bought protein used in Biacore and indirect ELISA; also called monkey PD-1; Cyno PD-1
Text: as §1, §2

[5] = biological target: T4, human PD-1 expressed on GS-J2/PD-1 cells (Genscript) (human, UniProt Q15116 25-288); assay: cell-based binding FACS on GS-J2/PD-1 cells expressing human PD-1 (MFI); unit from the axis 'Con of mAb, nM.'
T4 construct: whole, on cells; also called cell-surface human PD-1
Description: The mouse anti-PD-1 antibodies of the disclosure were also tested for their binding activities to human PD-1s expressed on cell surface by flow cytometry (FACS), using GS-J2/PD-1 cell line (Genscript) expressing cell-surface human PD-1s.
In specific, the 293F-mouse PD-1 cells and GS-J2/PD-1 cells were respectively harvested from cell culture flasks, washed twice and re-suspended in PBS containing 2% v/v Fetal Bovine Serum (FACS buffer). Then, 2×10⁵ cells per well were incubated in 96 well-plates with 100 μl of the anti-PD1 antibodies or controls at various concentrations for 40 minutes on ice. […] Following an incubation of 40 minutes at 4° C. in dark, cells were washed three times and re-suspended in FACS buffer. Fluorescence was measured using a Becton Dickinson FACS Canto II-HTS equipment and plotted against antibody concentrations. Data was analyzed using GraphPad Prism software and EC₅₀ values were reported.

[6] = biological target: T1, in house made human PD-1-Fc protein; assay: cell-based blocking FACS: antibody pre-mixed with biotin-labeled human PD-1-Fc, added to GS-C2/PD-L1 cells expressing human PD-L1 (blocked ligand); unit from the axis 'Con of mAb, nM.'
Description: GS-C2/PDL1 cells were harvested from cell culture flasks at the log phase, washed twice and re-suspended in PBS containing 2% v/v Fetal Bovine Serum (FACS buffer). GS-C2/PD-L1 cells, 0.6×10⁵ cells per welt, were incubated in 96 well-plates with 100 the antibody/PD1-Fc mixture for 40 minutes at 4° C. Cells were washed twice with FACS buffer, added with 100 R-Phycoerythrin Streptavidin (1:500 dilution in FACS buffer, Cat#:016-110-084, Jackson Immunoresearch), and incubated for 40 minutes at 4° C. in dark. Cells were washed twice and re-suspended in FACS buffer. Fluorescence was measured using a Becton Dickinson FACS Canto II-HTS equipment. Data was analyzed using Graphpad Prism software and IC₅₀ values were reported.

IC50 [1]: 0.0629 nM | EC50 [2]: 0.0379 nM | Kd [3]: 0.236 nM | koff [3]: 8.56e-05 s⁻¹ | kon [3]: 363000 M⁻¹ s⁻¹ | Kd [4]: 0.125 nM | koff [4]: 4.32e-05 s⁻¹ | kon [4]: 345000 M⁻¹ s⁻¹ | EC50 [5]: 0.23 nM | IC50 [6]: 0.496 nM
B1: mouse anti-PD-1 monoclonal antibody E1G5D1H1 (antibody, V domains shown)
VH: EVQLVESGGGLVKPGGSLKLSCAASGFTFSDFYMYWVRQTPEKRLEWVATISNSGTQTYYLDSVKGRFTISRDNAKNNLYLQMSSLKSEDTAMYYCARDYYRYDSWYFDVWGAGTTVTVSS
VL: DIVLTQSPASLAVSQGQRATISCRASESVDFYGTSLMQWFQLKPGQPPKLLIYAASNVESGVPARFSGSGSGTNFSLNIHPVEEDDIAMYFCQQSRKVPWTFGGGTNLEIK
notes: Hybridoma-derived mouse mAb; also called EIG5D1H1; E1G5DIH1

IC50 [1]: 0.0982 nM | EC50 [2]: 0.0554 nM | Kd [3]: 1.1 nM | koff [3]: 0.00022 s⁻¹ | kon [3]: 199000 M⁻¹ s⁻¹ | Kd [4]: 1.13 nM | koff [4]: 0.000119 s⁻¹ | kon [4]: 106000 M⁻¹ s⁻¹ | EC50 [5]: 0.37 nM | IC50 [6]: 0.782 nM
B2: mouse anti-PD-1 monoclonal antibody E1A9C8A7 (antibody, V domains shown)
VH: QVQLQQSGAEVVRPGVSVRISCKGSGYTFSDYVMHWMKQSHGESLEWIGVISTYHIPAVYNQKFKGKATMTVDKSSSTVYLELARLTSEDSAIYYCAREVYGDSYYFDVWGAGTTVTVSS
VL: DVLMTQIPLSLPVSLGDQVSISCRSSQSIVHSNGNTYLEWYLQKPGQSPKLLIYKVSNRFSGVPDRFSGSGSGTDFTLKISRVEAEDLGVYYCFQGSHVPYTFGGGTKLEIK
notes: Hybridoma-derived mouse mAb purified on Protein A; also called Mouse E1A9C8A7

IC50 [1]: 0.162 nM | EC50 [2]: 0.0647 nM | Kd [3]: 0.906 nM | koff [3]: 0.00022 s⁻¹ | kon [3]: 243000 M⁻¹ s⁻¹ | Kd [4]: 1.16 nM | koff [4]: 0.000161 s⁻¹ | kon [4]: 138000 M⁻¹ s⁻¹ | EC50 [5]: 0.483 nM | IC50 [6]: 0.484 nM
B3: mouse anti-PD-1 monoclonal antibody E2G4E10B7 (antibody, V domains shown)
VH: QVQLQQSGAELVRPGVSVKISCKGSGYTFTDYVMHWVRQSHAKSLEWIGVISTHFGDGVYNQKFKGKATMTVDKSSSTAYMELARLTSEDSAIYYCAREVYGDSWYFDVWGAGTTVTVSS
VL: B2 VL with I7T, V19A, I29L, N33D, V83L
notes: Hybridoma-derived mouse mAb; also called Mouse E2G4E10B7
